Laboratory results reported in patent publication US20050221422.

B1: C1Gal-T2 (entire ORF expressed in LSC cells, LSC-C1Gal-T2 enzyme source) (protein)
chain: MLSESSSFLKGVMLGSIFCALITMLGHIRIGHGNRMHHHEHHHLQAPNKEDILKISEDERMELSKSFRVYCIILVKPKDVSLWAAVKETWTKHCDKAEFFSSENVKVFESINMDTNDMWLMMRKAYKYAFDKYRDQYNWFFLARPTTFAIIENLKYFLLKKDPSQPFYLGHTIKSGDLEYVGMEGGIVLSVESMKRLNSLLNIPEKCPEQGGMIWKISEDKQLAVCLKYAGVFAENAEDADGKDVFNTKSVGLSIKEAMTYHPNQVVEGCCSDMAVTFNGLTPNQMHVMMYGVYRLRAFGHIFNDALVFLPPNGSDND
B2: FLAG tagged C1Gal-T3 fusion protein (C1Gal-T3 recombinant enzyme from pFLAG-C1Gal-T3, secreted by COS-1 cells) (protein)
chain: HIRHRGQTQDHEHHHLRPPNRNDFLNTSKVILLELSKSIRVFCIIFGESEDESYWAVLKETWTKHCDKAELYDTKNDNLFNIESNDRWVQMRTAYKYVFEKYGDNYNWFFLALPTTFAVIENLKYLLFTRDASQPFYLGHTVIFGDLEYVTVEGGIVLSRELMKRLNRLLDNSETCADQSVIWKLSEDKQLAICLKYAGVHAENAEDYEGRDVFNTKPIAQLIEEALSNNPQQVVEGCCSDMAITFNGLTPQKMEVMMYGLYRLRAFGHYFNDTLVFLPPVGSEND

What was measured:
[1] = target: T1, 11-GalNAc-HP-Cy5 (VPSTPPTPSPS(GalNAc)TPPTPSPS), human IgA1 hinge peptide with GalNAc on the 11th residue, Cy5-labelled
T1 chain: VPSTPPTPSPSTPPTPSPS

[2] = target: various GalNAc α1-peptides
[3] = target: T2, 4-GalNAc-HP (VPST(GalNAc)PPTPSPSTPPTPSPS), human IgA1 hinge peptide with GalNAc on the 4th residue
T2 chain: VPSTPPTPSPSTPPTPSPS

| Protein | HPLC of the galactose transfer reaction product [1] | β1,3-galactosidase treatment of the reaction product, HPLC [1] | galactosyltransferase activity on acceptor substrates [2] | galactose transferring activity [3] |
| --- | --- | --- | --- | --- |
| B1 | the reaction product appeared as a new peak at 28.8 minutes | C1Gal-T2 was verified in vitro to be a core 1 synthetase, by which galactose is transferred to the nonreducing terminal of GalNAc α1-peptide through the β1,3 bond | the above experiment was repeated using various GalNAc α1-peptides as acceptor substrates. This resulted in similar reactions to that with pNp-α-GalNAc | – |
| B2 | – | – | – | galactose transferring activity could be confirmed for 4-GalNAc-HP |
